{"source": "the DeepSol protein solubility set", "data": [{"assay": "soluble on expression in E. coli; label from the status in PepcDB or PDB records", "values": [{"sequence": "MGSDKIHHHHHHMGDLSFIAINDKCEVVLDNEIYKSNIQGIEEKYIAISLPVANGTYAIMHKGDMTEIWCYHDNQVYSFTSTVIERKKEDAIKLILISKPSYENIKRVQRRKNFRVDLIESIKYKVLNKNVVKTEIEKLKEASEEFSDGYMIDLSGGGLKIRIKQKPNVGDSIFVNLPIGDQKLFLISTCVRAIREVNGEYLCGLEFDDDIDERIREHIINYTFNIMRKHMKKR", "soluble on expression in E. coli": "not soluble"}, {"sequence": "MGSDKIHHHHHHMGEKMLGIINATGSFPSLKKVTGHRSLAALPFGGRYRLIDFMLSNMVNSNIHSVAVFTSHKNRSLMDHVGSGKQWDLDRKRDGLFLFPPNCQCDQDEFGSFAHFRRHIDYFLRAREEYVVITNSHLVTALNFQAVLERHIHTAADITEVCHEGVSLQTYVLKKQLLLDLFDSYKDVEQYSLFDVVREKRGKSLHIATYEHTGYVAIIDSIESYYKHSLEILQPAIWKQLFKKEAPIFTKVKDEPPTRYVKGAVVKNTMIANGSIIEGEVENSVVSRSVKIGKGSIVRNSIIMQKSQIGDNCIIDGVIIDKDVKIGDGVVLKGNADEPYVVEKGSVQNSTINSYS", "soluble on expression in E. coli": "not soluble"}, {"sequence": "MGSDKIHHHHHHMGERTEDYRYVKTQHKIYTALIALLKKRAFDDITVRDLCQAAQVSRSGFYLHFVDKYDLVDSYGRDLVKMGMRLFYANRGNGLETLYTELLTLINEQGDLITLLLSRKGSVEIQNQIKNQLRQNAADNILPYYGIKNQSPVAQRYLIAMTTGAVLSILQEWLDSGKQESPAELVAVMQEQVMPTLQRSQFRL", "soluble on expression in E. coli": "not soluble"}, {"sequence": "MGSDKIHHHHHHMGETVPEKAQGAIRHGGNLGKARLMFRQAPEPWIDLSTGINPHSYPHSPIPASAFARLPEPGAAEELKQLAAAHFGAPSAQHVTLSPGTQMLMPLLAQIAINRGAQSGAVLSPAYAEHARTARMAGLTVTEVENIGDLSAYGYAVVVNPNNPDGRITDREALLALAGTIGRKGGLLVVDEAFIETGGAESLAVATNGEALVVLRSFGKFYGMAGVRLGFAIAHPEIAAELEARLGPWAVSGPALHIATEALADREWQSSMRLRLAEEARRMNELLEKAGLKIAGGTSLFTLVRDERSRALFGHLGRRGILVRIFDERPDDMRFGLPGSEADWQRVEEALRSFDHSSKV", "soluble on expression in E. coli": "not soluble"}, {"sequence": "MGSDKIHHHHHHMGFRNVIITQHSKLSYSNNAMIVQNKDGINQIPLVDMDILLISTTQAVITSALVSKLAESGIKVIFTDNKNEPVTETVNYYPNNRSLDTYLQQYEWNDHVKEILWTKIVRSKIINQIKVLKNYQIDCQDLKIELDKLEINDMTNREAVVARKYFEKLFGNKYSRKDFTPMNAALNYGYSILLSAVNKEIVSAGYVTYLGIHHQSQENMFNFGSDLMESFRPVVDYWLADKNFLEFTPDIKYGLVDLLNLEIKYNKKQMLLKNAITKYVRDVIEYLNQETVEFDMEVEFTNEVPNNAINDNI", "soluble on expression in E. coli": "not soluble"}, {"sequence": "MGSDKIHHHHHHMGGIWMSSAKTLEEVISKISGVISAKVIEEDGQPREIHVIADPSRNPKQIVRDIETVALASLGMKIDRRIISVAQLSQGRFPSSQTYEITSIEVKNLDRKKQVKVTIHNPLEDEDMVGESAGPGTSTNLPRLVGEAVIEAFNPDCPVSVDDVQKVFLAGREFVLVHLTIQDEDRERTEVGVAPLEGDFLKSVATATLKVVKDLT", "soluble on expression in E. coli": "not soluble"}, {"sequence": "MGSDKIHHHHHHMGGNSLSKELYDWLGYSSETATASAFVQQRDKIRPEALKLLFHEFTRLTVSENSLQDYRLLAVDGSDLRLPSNSKDGFSSIRNSEDSKNYNLVHLDAMYDLMGKVYVDASVQSKKGMNEHKALVSMVDQSEINGNVIAIMDRGYESFNNIAHFQEKSWYYIIRAKESYGIISRLSLPDYPEYDEEIMLTLTRRQTKETLPLLKAYPHRYRWIQPHTTFDFIKPKDSKFYDLHFRAVRFAIADGVYETVYTNLNAEDFPPEKLKQLYNLRWGIETSFKELKYAVGLASLHSKKKDFILQEIFARLILYNYSSIIMHHISISEDLRVNFPVALNICRQFLRELIPAVQVLKLIGKHLSPIRPGRQFPRHQNPISAVGFQYRII", "soluble on expression in E. coli": "not soluble"}, {"sequence": "MGSDKIHHHHHHMGIEAAVGAWNNTPRGDFAYKGTNLDIKDELKYDDETRLMGRVKIETPLFFPNLYLMATPMEFDGQGSKSGTFQFGDVTFDGTVPFTSELKLDHYDLGLYWGIPLLKTATAGVVNVDLGIDARLIDLKAEVVQGGVTESKSLVVGVPMIYAGVQVRPLSWFAAEGEARGMAYGDNRYYDLIARGKLILFDHLFAAAGYRYEKIEIDESDIKADVDFGGPFAEVGFQF", "soluble on expression in E. coli": "not soluble"}]}]}
